Measured values reported in the supplement of paper PMC9942255.

System: Bacillus subtilis DB104 (SP-AmyQ fusion secretion)
Assay: AmyQ secretion efficiency, weighted average sort bin (1 = best secretion, 10 = worst) (bin number (weighted average, 1-10)); higher = lower secretion efficiency
Procedure, shortened: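 A B. subtilis DB104 library carrying amyE-integrated fusions of designed signal peptides to mature AmyQ was encapsulated at about 0.3 cells per ~65 nL alginate bead with fluorescein-starch and grown about 13 h at room temperature. Following nile red staining, occupied beads were flow-sorted as large particles into 10 equally populated bins by green/red fluorescence ratio, and the bin amplicons were Illumina-sequenced. The secretion score is the read-frequency-weighted average bin number normalised to beads per bin, leaving out low-abundance sequences.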

Sequence: MGRFLIGAGVAAVILSGWFIADHQTHSQEM
- AmyQ secretion efficiency: 6.17

Sequence: MKKKKAAAVLLSLGLVFGFSYGAGHVAEAKTK
- AmyQ secretion efficiency: 1.65

Sequence: MYKKFVPFAVFLFLFFVSFRKMRNPHALDY
- AmyQ secretion efficiency: 6.42

Sequence: MKLWMRKTLVVLFTIVTFGLVSPPAAHMADKP
- AmyQ secretion efficiency: 2.08

Sequence: MKRTWNRCGSSYKTYYLVAGSVPFHAEAKKP
- AmyQ secretion efficiency: 6.5

Sequence: MKKKLAAGLTASAIVGTTLVVTPNEAATI
- AmyQ secretion efficiency: 6.96

Sequence: MKKRKRRNFKRFIAAFLVLALMISLVPADVLAKRK
- AmyQ secretion efficiency: 3.6

Sequence: MKKRLIGFLVLVPALIMSGITLIEANDD
- AmyQ secretion efficiency: 4.89

Sequence: MKWMCSICCAAVLLAGESAQAEAV
- AmyQ secretion efficiency: 3.16

Sequence: MKKKQVMLALTAAAGLGLTALHAKAAPL
- AmyQ secretion efficiency: 2.9

Sequence: MKVLLSALLLLLFAFEPSLSGKKL
- AmyQ secretion efficiency: 6.45

Sequence: MKKAFLVFLSVVLVTTVFLVKQQESVAQAADD
- AmyQ secretion efficiency: 4.45

Sequence: MTMLRKIIGWILLLCIIPLFAFTVINSGKEV
- AmyQ secretion efficiency: 6.45

Sequence: MLCVMMLLFSAIASFPVSTQAKDQ
- AmyQ secretion efficiency: 5.3

Sequence: MKRQKQKYLLLGILCSAAVFLIGAPSRALGAEV
- AmyQ secretion efficiency: 3.43

Sequence: MKQFAITLSVLCALILLVPTLLVIPFQHNKEAPASV
- AmyQ secretion efficiency: 8.36

Sequence: MPYLKRVLLLLVTGLFMSLFRKKATASAQTG
- AmyQ secretion efficiency: 7.42

Sequence: MFKKLLLATSALTFSLSLVLKLRGHAKAQEV
- AmyQ secretion efficiency: 6.07

Sequence: MMIKQCVICLSLLVFGTTAVHAEET
- AmyQ secretion efficiency: 1.9

Sequence: MKSKGSIMACLILFSFTTFINTETISAFSN
- AmyQ secretion efficiency: 4.68

Sequence: MKRIRIPMTLALGAALTIAPLSFLSAEEN
- AmyQ secretion efficiency: 4.62

Sequence: MNKKYFVLIVCIIFTSALFPTFAVTVTAAQG
- AmyQ secretion efficiency: 1.05

Sequence: MKKARRLSAAAAVGLFTFGGVQQASAKEL
- AmyQ secretion efficiency: 3.35

Sequence: MFTWIYVVLVLSIAGIGGFSVHAASS
- AmyQ secretion efficiency: 5.5

Sequence: MTLGGSVSMFLVALTMCGGLFVTPAKAVKT
- AmyQ secretion efficiency: 3.81

Sequence: MRKKRQVCLWILVLLLSCLSGKSAYAATS
- AmyQ secretion efficiency: 2.64

Sequence: MKKKQVMLALTAAAGLGLTALHSAPAFKAAPL
- AmyQ secretion efficiency: 6.7

Sequence: MKSKWMSRKRRVAVGFSFTQVMVHAGET
- AmyQ secretion efficiency: 6.31

Sequence: MRKKRVITCVMAASPAGYATAKED
- AmyQ secretion efficiency: 7.65

Sequence: MKRKLKKSLAISALSLGLLVSAPTASFAAES
- AmyQ secretion efficiency: 3.49

Sequence: MLKKVKRAAFILVGSTLGAFSFSSDASAKHV
- AmyQ secretion efficiency: 1.33

Sequence: MKRSISIFITCLLITLLTMGGMIASPASAEDE
- AmyQ secretion efficiency: 2.08

Sequence: MTKKAWFLPLVCVLLIRKKLAPAASASAQTT
- AmyQ secretion efficiency: 7.9

Sequence: MLTKRLLTIYIMLLGLIAWFPGAAQGEEK
- AmyQ secretion efficiency: 2.56

Sequence: MAIIIAIIAAVIVIAALITFNVENASPG
- AmyQ secretion efficiency: 8.68

Sequence: MPYLMMVLLLLVTGLFMSLFAVTATASAQTG
- AmyQ secretion efficiency: 1.47

Sequence: MRKTIFAFLTGLMMFGTITAASASPF
- AmyQ secretion efficiency: 4.61

Sequence: MKKKQVMLALTAAAGLGLTALHSAPARKAAPL
- AmyQ secretion efficiency: 5.26

Sequence: MFNRLFRVCFLAALIMAFVLTFFVYAQKP
- AmyQ secretion efficiency: 5.95

Sequence: MKKEGKQYSRLCLSLSPLVSTNEVFAATT
- AmyQ secretion efficiency: 7.68

Sequence: MLKKIALTLCPAIVGSLLFFTAGASAHVS
- AmyQ secretion efficiency: 3.12

Sequence: MLKKKWMVGLLAGCLAAGGFSYNTFATEN
- AmyQ secretion efficiency: 5.24

Sequence: MLSMNLWISLLFALTLIFTMAFSNMSAQAAGK
- AmyQ secretion efficiency: 1.93

Sequence: MKRLCRKKRKKSLFLVLLPGKALGAVD
- AmyQ secretion efficiency: 7.45

Sequence: MTKKAWFLPLVCVLLISGWLAPAASASSQTT
- AmyQ secretion efficiency: 1.17

Sequence: MTKKAWFLPLVCVLLISGWLAPAASASLQTT
- AmyQ secretion efficiency: 3.41

Sequence: MKNMSCKLVVSVTLFFSFLTIGPLQHAQNS
- AmyQ secretion efficiency: 5.15

Sequence: MKKRLIAPMLLSAASLAFFAMSGSAQRAAY
- AmyQ secretion efficiency: 6.9

Sequence: MLCVMMLLFSAIASFPVSAQMKDQ
- AmyQ secretion efficiency: 6.09

Sequence: MGMKKKLSLGVASAALGLALVGGGTWGAFN
- AmyQ secretion efficiency: 7.37

Sequence: MRIFKKAVFVIMISFLIATVNVNTAHIAID
- AmyQ secretion efficiency: 6.89

Sequence: MKKQIITATTAVVLGSTLFAGAPSAQSI
- AmyQ secretion efficiency: 3.52

Sequence: MKVLLSALLLLLFAFEPSVSGKKL
- AmyQ secretion efficiency: 6.17

Sequence: MKVLLSALLLLLFAFEPSASGAKR
- AmyQ secretion efficiency: 4.45

Sequence: MKKRFFGPIILAFILFAGVIAIPS
- AmyQ secretion efficiency: 6.86

Sequence: MPYLKRVLLLLVTGLFMSLFIFLIVISAVTATASAQTG
- AmyQ secretion efficiency: 1.25

Sequence: MKRKLLSSLAISALSLGSAPTASFAAES
- AmyQ secretion efficiency: 3.3

Sequence: MKKAAAVLLSLGLVFGFSYGAGHVREAKTK
- AmyQ secretion efficiency: 7.77

Sequence: MKLWMRKTLVVLFTIVTFGLVSPPAATMADKP
- AmyQ secretion efficiency: 2.68

Sequence: MKWMCSICCAAVLLAGGAHQAEAV
- AmyQ secretion efficiency: 2.89

Sequence: MKKKQVMLALTAAAGLGLTALHSAPAIKAAPL
- AmyQ secretion efficiency: 4.18

Sequence: MKKCKRKKKKIALILSLSTNAFAKNT
- AmyQ secretion efficiency: 6.9

Sequence: MKTLRTLCVLMILSGVIFFGLKIDCKDI
- AmyQ secretion efficiency: 5.37

Sequence: MKKRLIGFLVLVPALIMSGITLIERNKK
- AmyQ secretion efficiency: 6.81

Sequence: MLCVMMLLFSAIASFPVSWQAKDQ
- AmyQ secretion efficiency: 6.99

Sequence: MRSYIKVLTMCFLGLILFVPTALQDNS
- AmyQ secretion efficiency: 6.11

Sequence: MRSYIKVLTMCFLGLILFVPTMLADNS
- AmyQ secretion efficiency: 3.1

Sequence: MKLAKRVSALTPSTTLAITAKFKEL
- AmyQ secretion efficiency: 7.68

Sequence: MKKWSTTIAMLILAGIALFVFISPLKSHKT
- AmyQ secretion efficiency: 5.92

Sequence: MKKLVLCVSILAVILSGVALYQLS
- AmyQ secretion efficiency: 4.11

Sequence: MKSKGSIMACLILFSFTITTFINTETISLFSN
- AmyQ secretion efficiency: 7.29

Sequence: MKTPKGMLLSTAAGLLLSLTATSVSAHYV
- AmyQ secretion efficiency: 5.33

Sequence: MKWMCSICCAAVLLAGGAMQAEAV
- AmyQ secretion efficiency: 3.69

Sequence: MKLKSKLFVICLAAAAIFTAAGVSANNEALDF
- AmyQ secretion efficiency: 5.76

Sequence: MKRFSTAYLLLGILCSAAVFLIGAPSRTLGAEV
- AmyQ secretion efficiency: 3.24

Sequence: MTKKAWFLPLVCVLLISGWLAPAASSSAQTT
- AmyQ secretion efficiency: 3

Sequence: MLKKIALILCIAIVFFLLFFSAPASAHVS
- AmyQ secretion efficiency: 3.76

Sequence: MFKKHTISLLIIFLLASAVLAKPIEAHTD
- AmyQ secretion efficiency: 1.8

Sequence: MKKWMITIAMLKKAGIALFVFISPLKSHKT
- AmyQ secretion efficiency: 6.51

Sequence: MIKKCSVCLWILVLLLSCLSGKSAYAATS
- AmyQ secretion efficiency: 2.24

Sequence: MNKKKKVVSALSISALALSVSGVASAHEI
- AmyQ secretion efficiency: 3.7

Sequence: MLKKIALTLCPAIVGSLLFFTAPASAHVK
- AmyQ secretion efficiency: 2.44

Sequence: MNKKYFVLIVCIIFTSALFPTFSSVTHAQG
- AmyQ secretion efficiency: 1.15

Sequence: MKVCQKSIVRFLVSLIIGTFVISVPFMANARKR
- AmyQ secretion efficiency: 3.31

Sequence: MKIRKILLSSALSFGMLISAVPCLAAGT
- AmyQ secretion efficiency: 2

Sequence: MKVLLSALLLLLFAEDEEEEASGKKL
- AmyQ secretion efficiency: 5.86

Sequence: MKKKLAAGLTASAIVGTTLVVTPAEWATI
- AmyQ secretion efficiency: 7.78

Sequence: MKWMCSICCAAVLLAGGAAQARRK
- AmyQ secretion efficiency: 6.49

Sequence: MKRIRIPMTLALGAALTIAPLDKASAEEN
- AmyQ secretion efficiency: 3.1

Sequence: MGLGKKLSVAVAASFMSLSISLFVVQAAEG
- AmyQ secretion efficiency: 3.73

Sequence: MNKKYFVLIVCIIFTSALFPTFSSATAAQG
- AmyQ secretion efficiency: 1.33

Sequence: MKRIRIPMTLALGAALTIAPLSFASTEEN
- AmyQ secretion efficiency: 8.25

Sequence: MTTKFTALAVFLLCFMPAAKIEHTQASLL
- AmyQ secretion efficiency: 4.17

Sequence: MRGKSAVLLSLIMLIAGFLIDFSFQM
- AmyQ secretion efficiency: 7.67

Sequence: MTRTGAIIAAVIVIAALITFNVRNASPG
- AmyQ secretion efficiency: 7.74

Sequence: MKKKIVAGLAVSAVVQDDPSAAPAEAKTI
- AmyQ secretion efficiency: 7.07

Sequence: MKRIRIPMTLALGAALTIAPLSFVSAEEN
- AmyQ secretion efficiency: 2.58

Sequence: MKKWLIIAVSLAIAIVLFRRKKGRAKAAGM
- AmyQ secretion efficiency: 5.92

Sequence: MKRLLVSLRVWMVFLMNWVTPDRKTKAAAVY
- AmyQ secretion efficiency: 7.79

Sequence: MKKSQYFIVFICFFVLFSVHPIASAAADS
- AmyQ secretion efficiency: 4.61

Sequence: MKRKRFLIGAGVAAVILSGWFIADHQTHSQEM
- AmyQ secretion efficiency: 5.04

Sequence: MTTWIVLFLVLIAAAISIFVYVSTGSEK
- AmyQ secretion efficiency: 8.09

Sequence: MKLAKRVSALTPSTTLAITAKHKEL
- AmyQ secretion efficiency: 6.77

Sequence: MRSKKILWISLLFALTLIFTMAFSNMSAQAAGK
- AmyQ secretion efficiency: 2.64

Sequence: MTKKAWFLPLVCVLLISGWLAPAASRSAQTT
- AmyQ secretion efficiency: 5.9

Sequence: MKLRKVLTGSVLSLGLLVSASPAFARKR
- AmyQ secretion efficiency: 5.66

Sequence: MRKKKRHSRLIVLLFFSFFGVQPIHAKKQ
- AmyQ secretion efficiency: 7.01

Sequence: MQNRLFRVCFLAALIMAFTLPNSVYAQKP
- AmyQ secretion efficiency: 1.12

Sequence: MKNMSCKLVVSVTLFFSFLTIGPLAHLQNS
- AmyQ secretion efficiency: 6

Sequence: MLKKIALTLCPAIVGSLLFFTVAPASAHVS
- AmyQ secretion efficiency: 3.73

Sequence: MKKLVLCVSILAVILSGVGLTQLS
- AmyQ secretion efficiency: 5.94

Sequence: MNFKKTVVSALSISALALKKRGVASAHEI
- AmyQ secretion efficiency: 6.98

Sequence: MRSYIKVLTMCFLGLILFVPTALCDNS
- AmyQ secretion efficiency: 3.89

Sequence: MKKRRLIGFLVLVPALIMSGITLIEANKK
- AmyQ secretion efficiency: 6.64

Sequence: MLKKIMNLNMMMALTLCPAIVGSLLFFTAPASAHVS
- AmyQ secretion efficiency: 2.77

Sequence: MKWMCSICCAAVLLAGGAAQIEAV
- AmyQ secretion efficiency: 2.05

Sequence: MKKRKRRNFKRFIAAFLVLALMISLVPADMLAKST
- AmyQ secretion efficiency: 1.76

Sequence: MKIRKILLSSALSFGMLISAVPVLAAGT
- AmyQ secretion efficiency: 3.66

Sequence: MKVPKTMLLSTAAGLLLSLTATSTSAHYV
- AmyQ secretion efficiency: 4.19

Sequence: MRKNRILALFVLSLGLLSFMVTPVSTASK
- AmyQ secretion efficiency: 5.93

Sequence: MKSKWMSGLLLVAVGFSFTQVMLHAGET
- AmyQ secretion efficiency: 6.15

Sequence: MKLSVKIAGVLTVAAAAMTAKMYNTAKGN
- AmyQ secretion efficiency: 6.07

Sequence: MMKKLFHSTLIVLLFFSFFGVQPEIHAKKQ
- AmyQ secretion efficiency: 2.24

Sequence: MKLAKRVSALTPSTTLAITIKAKEL
- AmyQ secretion efficiency: 8.5

Sequence: MRKRKKRTIFAFLTGLMMFGTITAASASPD
- AmyQ secretion efficiency: 5.69

Sequence: MKRLALGAALTIAPLSFASAEEN
- AmyQ secretion efficiency: 5.98

Sequence: MKRMIVRMTKRKRRRCLAFSSFSASARAASE
- AmyQ secretion efficiency: 8.6

Sequence: MKKTIMSFVAVAALSTTAFGAHVSAKEI
- AmyQ secretion efficiency: 2.83

Sequence: MRKKRTSNFNMIVITCVMAASLTLGSLLPAGYATAKED
- AmyQ secretion efficiency: 3.08
